Laboratory results from the nanobody polyreactivity screen of Harvey et al. (2022).

Experiment: yeast display, Sf9 membrane polyspecificity reagent, FACS + sequencing; frameworks hold sequencing errors
Method in brief: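 A synthetic nanobody library was expressed on Saccharomyces cerevisiae BJ5465 by galactose induction for 36–48 hours. The library was stained for 1 hour at 4 °C with 10% biotinylated, detergent-solubilized Sf9 membrane reagent and enriched with streptavidin microbeads before FACS. Low and high (top ~1%) gates were set on anti-HA fluorescence for expression and streptavidin fluorescence for reagent binding, and each polyreactivity label reflects the gate of origin.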

Row | Sequence | polyreactivity (PSR sort gate)
1 | QVQLVESGGGLVQAGGSLRLSCSASGLIFSSYAMGWYRPAPGKERELVAAISRGGSTNYADSVKGRFTISRDNAKNTVYLQMNSLKPEDTAVYYCNDYSWVNRYDYWGQGTQVTVSA | high polyreactivity
2 | QVQLVESGGGLVQAGGSLRLSCSASGLIFYDYDMGWYRQAPGKERELVAAISNDASTYYADSVKGRFTISRDNGKNTVYFQMNSLKPEDTAVYYCAAEPYVFGLSSKPFWYNYWGQGTQVTVSS | low polyreactivity
3 | QVQLVESGGGLVQAGGSLRLSCSASGRIFDKYTMGWYRQAPGKERELVATITRGGVSTYYADSVKGRFTISRDNAKNTVYLQMTSLKPEDTAVYYCNAVWRLRVRYGYWGQGTQVTVSS | high polyreactivity
4 | QVQLVESGGGLVQAGGSLRLSCSASGRIFSLYAMGWYRQAPGKESELVAAITWSSGSTYYADSVKGRFTISRDNAKNTVYLQMNSLKPEDTAVYYCDARVFTLLGYSYEYWGEGTQVTVSS | low polyreactivity
5 | QVQLVESGGGLVQAGGSLRLSCSASGRIFVDNALGWYRQAPGKERELVATITSTGSTNYADSEKGRFTISRDNGMNTFYLQMNSLKPEDTAFYYCNADGIMQDYDYWGQVTQVTVSS | low polyreactivity
6 | QVQLVESGGGLVQAGGSLRLSCSASGRILRQYAMGWSRQAPGKERELVAAITSSGGSTYYADSVKGRFTISRDNAKNTVYLQMNSLKPEDTAVYYCNARLRGAKYDYLGQGTQVTVSS | high polyreactivity
7 | QVQLVESGGGLVQAGGSLRLSCSASGRTFLGYAMGWYRQPPGKERELVAAISWDGTSTYYADSVKGRFTISRDNAKNNVYLQMNSLKTEDTAVYYCAAQYSYRMDYWGQGTQVTVSS | low polyreactivity
8 | QVQLVESGGGLVQAGGSLRLSCSASGRTFRGNAMGWSRHAPGKEREMVAAITSSGGSTYYADSVKGRFTISRDNAKNNVHLKMNSLKPEDTAVYYCAKTYVVPQYDYDYWGQGTQVTVSS | low polyreactivity
9 | QVQLVESGGGLVQAGGSLRLSCSASGRTFRKYAMGWYRQPPGKESELVAAISWSGGSTYYANSVKGRFTISRDNAKNTVYLQMNSLKPEDTAVYYCAAVPVHTGSLYWGFTTGYDYWGQGTQVTVSS | low polyreactivity
10 | QVQLVESGGGLVQAGGSLRLSCSASGRTFRSNAMGWYRQAPGKEREFVAAIRSRGGSTYYADSVKGRFTISRDNAKNSVYLQMNSLKPEDTAVYYCADKHGSTSHDSWGQGTQVSVSS | high polyreactivity
11 | QVQLVESGGGLVQAGGSLRLSCSASGRTFRSYTMGWYRQAPGKERELVAAINRGDRTYADSVKGRFTISRDNAKNTVYLQMNSLKPEDTAVYYCNARYYTHRYDYWGQGTQVTVSS | high polyreactivity
12 | QVQLVESGGGLVQAGGSLRLSCSASGRTFRWYTMGWYRQAPGKEREFVAAITWSGSSTDYADSVKGRFTISRDNAKNTVYFQMNSLKPEDTAVYYCAAENRRRRDDYWGQGTQVTVSS | high polyreactivity
13 | QVQLVESGGGLVQAGGSLRLSCSASGRTFSVYAMGSYRQAPGKERELVAGITSGGSTNYADSVKGRFTISRDNAKNTVYLQMNSLKPEDTAVYYCDAENVYAGFGFVSIVDYWVQGTQVTVSS | low polyreactivity
14 | QVQLVESGGGLVQAGGSLRLSCSASGRTFYHYTMGRYIQAPGKERELVAAITSGGSTYYADSVKGRFPISRDNAKNTVYLQMNSLKPEDTAVYYCARVRPLYHYSRYDYWGQGTQVTVSS | high polyreactivity
15 | QVQLVESGGGLVQAGGSLRLSCSASGRTFYRNAMGWYRQSPGKESEFVAVISVSGGSTYYADSVKGRFTISRDNAKNTVYLQMNSLKPEDTAVYYCAADEYYTFSCFELRRMDYWGQGTQVTVSS | low polyreactivity
16 | QVQLVESGGGLVQAGGSLRLSCSASGRTLTRYTMGWYRKAPGKERELVAGITRSGGSTYYADSVNGRFTISRDNAKNTVYLKMNSLKPEDTAVYYCAVKQRDKFAGGRNDYWGQGTQVTVSS | high polyreactivity
17 | QVQLVESGGGLVQAGGSLRLSCSASGSIFFKYAMGWYRQAPGKERELVASITSRGGTTYYADSVKGRFTISRDNAKNTVYLQMNSLKPEDTAVYYCAALRRSSFGYWGQGTQVTVSS | high polyreactivity
18 | QVQLVESGGGLVQAGGSLRLSCSASGSIFNYYAMGWYRQPPGKERELVAAISYRTGSTYYADSVKGRFTISRDNSKNTVYLQMNSLKPEDTSVYYCAADTRYGYGYWGQGTQVTVSS | high polyreactivity
19 | QVQLVESGGGLVQAGGSLRLSCSASGSIFPYYSMGWYRQAPGQERQLVAAISYSGGRTRYADSVKGRFTISRDNAKNTVYLQMNSLKPEDTAVYYCAVVDRHQPYGRQLDYWGQGTQVTVSS | low polyreactivity
20 | QVQLVESGGGLVQAGGSLRLSCSASGSIFRGYTMGLYRQAPGKERELVAGITLRGVSTYYADSVKGRFTISRDNAKNTVYVQMNSLKPEDTAVYYGAVDYGRAVQGDSITYDFNYWGQGTQVTVSS | low polyreactivity
21 | QVQLVESGGGLVQAGGSLRLSCSASGSIFRRYAMGWYRQAPGKVRELVAVITTDGSTYYADSVKGRFTISRDNAKNTVYLQMHSLKPEDTAVYYCAAEDYVIGYSGYDYWGQGTQVTVSS | low polyreactivity
22 | QVQLVESGGGLVQAGGSLRLSCSASGSIFSENTMGGYRQAPGKKRELVADITSGGSTNYADSVKGRFTISRDNAKNTVYLQMNSLKPEDTAVYYCAADYNGEYDYWGQGTQVTVSS | low polyreactivity

Row | Sequence | polyreactivity (PSR sort gate)
23 | QVQLVESGGGLVQAGGSLRLSCSASGSIIVSYTMGWYRQAPGKERELVAAISGGGASTYYADSVKGRFTISRDNAKNTVYLQMNSLKPEDTAVYYCNADGYYDMDYCGQGTQVTVSS | low polyreactivity
24 | QVQLVESGGGLVQAGGSLRLSCSASGSILSAYDMGWYRQATGKERELVAAIDSSGGSTYYADSVKGRFTISRDNAKNTVYLQMNSLKPEDTAVYYCAATSLAGYYKFDYWGQGSQVTVSS | low polyreactivity
25 | QVQLVESGGGLVQAGGSLRLSCSASGSTFDVYAMGRYRQAPGKERELVAAISRSGGSTYYADSVKGRFTISRDNAKNTVYLQMNSLKPEDTAVYYCAAEVGIVDYDYWGQGTQVTVSS | low polyreactivity
26 | QVQLVESGGGLVQAGGSLRLSCSASGSTFFIYAMGWYRQAPWKERELVAAIRSGGTYYADSVKGRFTISRDNAKITVYLQMKSLKPEDTAVYYCAARTRGFRYYYWGQGTQVTVSS | high polyreactivity
27 | QVQLVESGGGLVQAGGSLRLSCSASGSTFFWNAMGWYRQAPGKESEFVAAISSSSGSTYYADSVKGRFTISRDNAKNTVYLQMNSLKPEDTAVYYCAARPWGNVFDSAVSYDYWGQGTQVTVSS | low polyreactivity
28 | QVQLVESGGGLVQAGGSLRLSCSASGSTFNVNAMGWYRQAPGKERELVAAIRTSGGSTYYADSVKGRFTISRDNAKNTVYLQMNSLKQEDTAVYYCNARVGSSSSRYYYWGQGTQVTVSS | low polyreactivity
29 | QVQLVESGGGLVQAGGSLRLSCSASGSTFRIYAMGWYRQAPGKERELVAAISWSSGSTYYADSVKGRFTISRDNAKKSVYLQMNSLKPEDTAVYYCATYARRSGYYYWGQGSQVTVSS | high polyreactivity
30 | QVQLVESGGGLVQAGGSLRLSCSASGSTFVTNVIGWYRQAPGKERELVAAISYSGGNTYYEDSVKGRFTISRDNAKNTVYLQMNSLKPEDTAVYYCAASYKPFKKMGYWGQGTQVTVSS | high polyreactivity
31 | QVQLVESGGGLVQAGGSLRLSCSASGSTFYVYAMGWYRQAPGKERELVAAITDSGGSTYADSVKGRFTISRDNAKNTVYLQMNSLKPEDTAVYADSTYNWYYYYWGQGTQVTVSS | low polyreactivity
32 | QVQLVESGGGLVQAGGSLRLSCSPSGSIFVSYTMGWYRQAPGKERELVAAISSGGSTYYADSVKGRFTITRDNAKNTVYLQMNSLKPEDTAVYYCARRLTREYDYWGQGTQVTVSS | low polyreactivity
33 | QVQLVESGGGLVQAGGSLRLSCTASGIIFGTYAMGLYRQAPGKERELVAAISSSGVSTYYADSVKGRFTISRDNAKNTVYLQMNSLKPEDTAVYYCAAPLHYGYYYWGQGTQVTVSS | high polyreactivity
34 | QVQLVESGGGLVQAGGSLRLSCTASGSTFVAYAMGWYRQAPGKERELVAAITSSGGRTYYADSVKGRFTISRDNAKNTVYLQMNSLKPEDTAVYYCAAVTHGRYDWGQGTQVTVSS | high polyreactivity
35 | QVQLVESGGGLVQAGGSLRLSCVASGRIFQSYAMGWYRQAPGKERELVARITGGSSTYYADSVKGRFTISRDNAKNTVYLQMNSLKPEDTAVYYCAARTRGPDRARYDYWGQGTQVTVSS | low polyreactivity
36 | QVQLVESGGGLVQAGGSLRLSCVASGRTFGNNAMGWYRQAHGKERELVAAITSGGSTNYADSVKGCFTISRDNAKNTVYLQMNSLKPEDTAVYYCAAKQYRAGGGYWGQGSQVTVSS | high polyreactivity
37 | QVQLVESGGGLVQAGGSLRLSCVASGSISQTYAMGWYRQAPGKERELVAAISSSGASTYYADSVKGRFTISRDNAKNTVYLQMNSLKPEDTAVYYCNADKFRRYGYWGQGTQVTVSS | high polyreactivity
38 | QVQLVESGGGLVQAGGSLRLSFAASGFTFYYYTMGWYRQEPGKERELVAGISRRRGSTRYADSVKGRFTISRDNAKNTVYLQMNSLKPEDTAVYYCAAYPVVTEFDYWGQGTQVTVSS | high polyreactivity
39 | QVQLVESGGGLVQAGGSLRLSFAASGFTISYYAMGWYRQAPGKERELVAAISQSGGSTYYADSVKGRFTISRDNAKNTVYLQMNSLKPEDTAVYYCAADTYYNLGNYWGQGTQVTVSS | high polyreactivity
40 | QVQLVESGGGLVQAGGSLRLSFAASGGIFRLYAMGWYRQAPGKERELVAAINGGGSTNYADSVKGRFTISRDNAKNTVYLQMNSLKPEDTAVYYCNAVQYYRFQVYEYDYWGQGTQVTVSS | high polyreactivity
41 | QVQLVESGGGLVQAGGSLRLSFAASGNIFVYYAMGWYRQAPGKVRELVAAISFRGGTTYYADSVKGRFTISRDNAKNTVYLQMNSLKPEDTAVYYCAARTMPRVSRKTFGYWGQGTQVTVSS | low polyreactivity
42 | QVQLVESGGGLVQAGGSLRLSFAASGRIFYNYAMGWYRQAPGTERELVAAITDSDGSTYADSVKGRFTISRDNAMNTVYFQMNSLKPEDTAVYYCAARRYYPYKYRYGYWGQGTQVTVSS | high polyreactivity
43 | QVQLVESGGGLVQAGGSLRLSFAASGRIFYVYAMGWYRQAPGKERELVAAITYSGGSTYYADSVKGRFTISRDNAKNTVYLQMNSLKPEDTAVYYCATEGSYTRWSRGLDYWGQGTQVTVSS | low polyreactivity
